Results reported in paper PMC9025568, “Identification and Characterization of Two Bibenzyl Glycosyltransferases from the Liverwort Marchantia polymorpha” (Antioxidants, 2022).

Columns and labels:
Assay in all cases: HPLC glucosylation assay, nonlinear fit (GraphPad Prism)
Type in all cases: biochemical, Marchantia polymorpha
[1] = substrate: Oc1ccc(CCc2cc(O)cc(O)c2)cc1; settings: UDP-glucose as donor, Tris-HCl, optimal pH (7.0-7.5), 30 °C, 12 min
Source text: (§1) HPLC glucosylation assay, nonlinear fit (GraphPad Prism) on MpUGT737B1

[2] = substrate: Oc1ccc(CCc2cccc(O)c2)cc1; settings: UDP-glucose as donor, Tris-HCl, optimal pH (7.0-7.5), 30 °C, 12 min
Source text: as §1

[3] = substrate: O=C(CCc1ccc(O)cc1)c1c(O)cc(O)cc1O; settings: UDP-glucose as donor, Tris-HCl, optimal pH (7.0-7.5), 30 °C, 12 min
Source text: as §1

[4] = substrate: Oc1ccc(CCc2cccc(O)c2)cc1; settings: UDP-glucose as donor; Tris-HCl, optimal pH (7.0), optimal temperature (25-30 °C), 12 min
Source text: HPLC glucosylation assay, nonlinear fit (GraphPad Prism) on MpUGT741A1

B1: MpUGT737B1 (Marchantia polymorpha) (protein)
chain: MELTNGTTRRAHVLMVCVPFPGHVAPFTQLLYHLSCHENLKVTVMGHKARNAEMIKLYEKGEFKGLDIHFETIFADPPVYPSDPKFPIRAALCADQMFVEFEPIRRRLVAEKDNVGAPTSIICDMFLWFTKDAADEMGVPWYPFFSTSQWFGYCAYIGDELARRNFHPHHSEEKDQRIDITGLEFAYVHDIPSEVLEFPEFYAKVTDRSFRATGILCNTAYELEGSAGTLMATKALVQRSGKKNLKGEEAQIIPVGPIAQIPGFGVQYSLRDQPYECLKWLNAHTEKSVLYIAFGSLGNIVPEVFHELALGLEAGGVPFLWALKLTPAQKEELLPEGFLERIQSSGMGFIESGWAPQTQILMHPAVGGFLSHCGWNSTLESLCAGVPMITWPLSADQPMNARFLVDVKKVAVTVLSGSADESVVTHDDISKAIKRLFGDEEGKQIAKNSLELKKLLASLVAEGGSTYKALRYFIQDLVMV
notes: full-length ORF (1443 bp, 480 residues) in pET32a(+), N-terminal Trx-S-His tag, E. coli BL21(DE3), purified
For B1, the Km [1] was 45.6 ± 9.7 µM, the Vmax [1] was 0.1 µmol/min/mg and the kcat [1] was 0.089 ± 0.006 s⁻¹. It also gave a kcat/Km [1] of 1960 M⁻¹ s⁻¹, a Km [2] of 39.3 ± 7.5 µM and a Vmax [2] of 0.0373 µmol/min/mg. It also gave a kcat [2] of 0.033 ± 0.002 s⁻¹, a kcat/Km [2] of 846 M⁻¹ s⁻¹ and a Km [3] of 50.2 ± 10.6 µM. The Vmax [3] was 0.07 µmol/min/mg, the kcat [3] was 0.062 ± 0.005 s⁻¹ and the kcat/Km [3] was 1240 M⁻¹ s⁻¹.

B2: MpUGT741A1 (Marchantia polymorpha) (protein)
chain: MGSHVERPPRALLFPVVASGHWGPFLQLILQLATKKLNFTLLADRGRCDELKAYQAKGAFATLDVEFLEVYTDPSTLSLRKDLVPAMWTNLESFISNGEFDPSRYTCMISDMFLYFCQDLADKWGIPNYFYVTCPTYFGLVLLHGEGIVDGGWIPQNPVKRKQFLDLPGLEMFTGGDMPMALTEMEPDLFHLLPRAIKGSAGLVFNSFEEFEKKPLSDLRDQLKLNAMPGKGPPTVFTIGPLLLLPGIPGALDDTKPVEKSESIAWLDKQQKSSVLFICFGSQRELPEPLITGIASGLEDTGVPFLWALRIPPQSSKIESLPEGFESRTQSRGLVLTSWVPQQEILLHPSVGGFLTHCGWNSILESMLGGVPIAAFPLYAEQRMNQRYMVNAVKTAVAIEGEHGQYEAKEIAAAIMRLLKGKEGVEARQNMQIMKEMAYAAMEEGGSSHKNLQNFLAEVQRVR
notes: full-length ORF (1392 bp, 463 residues) in pET32a(+), N-terminal Trx-S-His tag, E. coli BL21(DE3), purified
B2 showed a Km [4] of 89.2 ± 17.6 µM, a Vmax [4] of 0.15 µmol/min/mg and a kcat [4] of 0.124 ± 0.012 s⁻¹. For the same protein, the kcat/Km [4] was 1500 M⁻¹ s⁻¹.
